Biological target: the molecule itself
Assay: cross-linking

B1: CstR (CsoR-like sulfurtransferase repressor), wild type, Staphylococcus aureus strain Newman (natural protein, UniProt Q9XBC0 1-86, looked up)
chain: MNYDKKMINRINRIQGQLNGIIKMMEEGKDCKDVITQISASKSSLQRLMGIIISENLIECVKVAADDEESSQELINEAVNLLVKSK
  stoichiometry N: 2
